Positions count from the first letter of the chain named.
B1: 45A5G10: murine-derived anti-cMET monoclonal antibody; VL SEQ ID NO: 1, VH SEQ ID NO: 2 (antibody, V domains shown)
VH: EVRLEESGGGFVQPGGSMKISCVASGFTFSNYWMNWVRQSPEKGLEWVAQIRLKSLNYATHYAESVKGRFTISRDDSRNSVYLQMNNLRAEDAGIYYCTEEGFAYWGRGTLVTVSA
VL: IVMTQSPASLPVSLGQRATISCRASESVDDYGVSFVNWFQQKPGQPPKLLIYTASVQESGVPARFSGSGSGTDFSLNIHPLEEDDTAMYFCQQSKEIPPTFGGGTKLEIK
B2: 44H10E8: murine-derived anti-cMET monoclonal antibody; VL SEQ ID NO: 5, VH SEQ ID NO: 6 (antibody, V domains shown)
VH: QVHLQQSGAELARPGASVKMSCKASGYTFISYTIHWVKQSPGQGLEWIGYINPSSGYAKNNPKFQDKATLTADTSSTTAYIQLSSLTSEDSAVYYCTRPYGDFVDWYFDVWGTGTTVTVSS
VL: NIMMTQSPSSLAVSAGEKVTMNCKSSQSVLYFSNQKNCLAWYQQKPGQSPKLLIYWASTRESGVPDRFTGSGSGTDFTLTISSVQADDLAVYYCQQYLSSLTFGAGTKLELK
B3: 41F5B2: murine-derived anti-cMET antibody of Table 1; probably clone 51D5B2 (VL SEQ ID NO: 7, VH SEQ ID NO: 8) (antibody, V domains shown)
VH: B1 VH with E6D
VL: B1 VL with S75R
B4: 55A10G6: murine-derived anti-cMET monoclonal antibody; VL SEQ ID NO: 3, VH SEQ ID NO: 4 (antibody, V domains shown)
VH: QIQLQQSGPELVKPGASVKISCKASGYTFTDYYLNWVRQRPGQGLEWIGWIFPGSGNTKYIEKFKGKATLTVDTSSSTAYMLLSSLTSEDSAVYFCAGGDYGGFTYWGQGTLVAVSA
VL: DIQMTQSPPSLSASVGETVTITCGASENIYGALNWYQRKQGKSPQLLIYGATNLAAGMSSRFSGSGSGRQFSLKISSLHPDDVATYYCQNVLSEPLTFGAGTKLELK

Tests used:
Cyno.cMet-ECD-hFc = assay: ELISA affinity of murine-derived antibodies to cyno MET-ECD-hFc; format: binding
Protocol: (§1) 4 mice, all female, are selected from each of strains of CDT (Vital River), KM (Vital River), and Balb/c (Gempharmatech Co., Ltd.), and are enrolled into a group at about 6 weeks old. Immunization is performed using cMET-His and hcMET-mFc (Sichuan Sibowo Biotechnology Co., Ltd.), and after 2 times of booster immunization, serum titers are detected through ELISA. For a mouse with a higher ELISA protein titer, an affinity titer of tumor cells MKN-45 and a competition FACS titer of MKN45-HGF are detected through FACS. Finally, 1 mouse from each of CD1, KM, and Balb/c is selected, and the spleen and lymph node thereof are used to prepare cell suspensions for hybridoma fusion with SP2/0 mouse myeloma cells. ELISA preliminary screening is performed through human hMET-ECD-hFc antigen proteins, and after the preliminary screening, positive hybridomas are selected to be cloned. Hybridoma cells are cultured in a serum-free medium, and a collected monoclonal supernatant is purified through the ProA filler to obtain murine-derived antibodies. Affinities of the murine-derived antibodies to human MET-ECD-hFc and cyno MET-ECD-hFc proteins are detected through ELISA, and the affinity of the murine-derived antibodies to the MKN45 tumor cells and blocking of MKN45-HGF ligand competition is detected through FACS.

MKN45 tumor cells = assay: FACS affinity of murine-derived antibodies to MKN45 tumor cells; format: binding, human
Protocol: as §1

MKN45-HGF = target: T1, MKN45-HGF (Homo sapiens, UniProt P08581); assay: FACS blocking of MKN45-HGF ligand competition (murine-derived antibodies); format: binding
T1 construct: MKN45 cells expressing c-MET antigens; endogenous in cells; host or cells: MKN45
T1 sequence (P08581 25-1390): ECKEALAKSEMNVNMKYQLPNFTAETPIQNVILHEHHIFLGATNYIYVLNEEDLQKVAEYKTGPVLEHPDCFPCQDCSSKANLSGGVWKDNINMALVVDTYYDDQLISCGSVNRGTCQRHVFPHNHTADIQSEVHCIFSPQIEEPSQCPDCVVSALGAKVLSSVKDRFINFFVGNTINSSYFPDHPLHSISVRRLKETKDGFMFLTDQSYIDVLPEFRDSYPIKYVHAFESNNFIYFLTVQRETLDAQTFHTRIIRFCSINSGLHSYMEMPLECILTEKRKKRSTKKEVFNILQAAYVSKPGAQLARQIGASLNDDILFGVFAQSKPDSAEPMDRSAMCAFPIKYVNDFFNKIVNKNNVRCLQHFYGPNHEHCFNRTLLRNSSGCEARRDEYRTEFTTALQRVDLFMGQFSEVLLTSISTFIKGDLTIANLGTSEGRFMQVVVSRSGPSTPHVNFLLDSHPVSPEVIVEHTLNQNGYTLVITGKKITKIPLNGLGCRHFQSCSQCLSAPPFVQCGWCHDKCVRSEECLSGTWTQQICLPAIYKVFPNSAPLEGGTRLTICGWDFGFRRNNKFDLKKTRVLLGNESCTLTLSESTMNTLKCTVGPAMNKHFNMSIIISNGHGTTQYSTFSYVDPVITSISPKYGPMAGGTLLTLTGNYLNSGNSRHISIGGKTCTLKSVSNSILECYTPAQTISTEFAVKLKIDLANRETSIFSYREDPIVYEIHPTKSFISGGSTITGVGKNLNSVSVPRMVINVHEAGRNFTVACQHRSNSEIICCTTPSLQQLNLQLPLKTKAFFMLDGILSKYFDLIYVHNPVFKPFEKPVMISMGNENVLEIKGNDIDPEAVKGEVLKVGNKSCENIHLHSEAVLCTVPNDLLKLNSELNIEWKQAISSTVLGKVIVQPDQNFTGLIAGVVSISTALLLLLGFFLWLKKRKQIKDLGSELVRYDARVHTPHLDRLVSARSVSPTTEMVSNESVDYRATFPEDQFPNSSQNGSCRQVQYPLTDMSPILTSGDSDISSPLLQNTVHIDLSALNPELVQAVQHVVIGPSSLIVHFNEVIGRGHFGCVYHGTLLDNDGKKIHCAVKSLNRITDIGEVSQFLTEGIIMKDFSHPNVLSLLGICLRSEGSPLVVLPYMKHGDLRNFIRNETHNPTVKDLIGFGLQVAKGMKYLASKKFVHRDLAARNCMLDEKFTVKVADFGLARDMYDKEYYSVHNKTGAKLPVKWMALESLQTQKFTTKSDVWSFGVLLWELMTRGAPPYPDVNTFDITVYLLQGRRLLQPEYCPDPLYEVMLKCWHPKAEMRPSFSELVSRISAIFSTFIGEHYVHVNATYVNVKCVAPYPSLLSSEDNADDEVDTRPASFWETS
Protocol: as §1

cMet-ECD-hFc = target: T2, cMet-ECD-hFc (Homo sapiens, UniProt P08581); assay: ELISA affinity of murine-derived antibodies to human MET-ECD-hFc; format: binding
T2 construct: made in house; host or cells: HEK293E
T2 sequence (P08581 25-932): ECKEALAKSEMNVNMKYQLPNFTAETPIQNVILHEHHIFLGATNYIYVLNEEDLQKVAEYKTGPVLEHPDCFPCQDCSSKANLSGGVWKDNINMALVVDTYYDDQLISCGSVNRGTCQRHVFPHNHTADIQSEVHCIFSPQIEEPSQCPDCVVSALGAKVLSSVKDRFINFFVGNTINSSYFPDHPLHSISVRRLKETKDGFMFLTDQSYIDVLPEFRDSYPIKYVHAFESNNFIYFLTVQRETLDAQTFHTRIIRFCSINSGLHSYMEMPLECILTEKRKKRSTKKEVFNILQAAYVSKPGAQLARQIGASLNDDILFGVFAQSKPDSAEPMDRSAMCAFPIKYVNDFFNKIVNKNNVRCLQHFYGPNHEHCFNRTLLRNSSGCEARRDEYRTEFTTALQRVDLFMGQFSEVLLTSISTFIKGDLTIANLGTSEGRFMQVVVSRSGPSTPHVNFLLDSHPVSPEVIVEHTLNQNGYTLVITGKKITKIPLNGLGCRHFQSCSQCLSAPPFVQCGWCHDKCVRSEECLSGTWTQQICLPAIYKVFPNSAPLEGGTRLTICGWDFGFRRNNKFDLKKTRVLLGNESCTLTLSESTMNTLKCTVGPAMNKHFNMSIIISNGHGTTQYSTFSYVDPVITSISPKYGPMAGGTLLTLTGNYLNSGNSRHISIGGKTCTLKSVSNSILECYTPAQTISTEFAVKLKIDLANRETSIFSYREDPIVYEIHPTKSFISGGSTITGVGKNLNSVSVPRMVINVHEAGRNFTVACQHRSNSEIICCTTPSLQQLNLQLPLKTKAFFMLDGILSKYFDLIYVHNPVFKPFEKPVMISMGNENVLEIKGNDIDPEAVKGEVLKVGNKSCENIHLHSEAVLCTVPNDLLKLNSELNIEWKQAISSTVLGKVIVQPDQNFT
Protocol: as §1

Molecule | Cyno.cMet-ECD-hFc (EC50 = ng/ml) (Cyno.cMet-ECD-hFc) [ng/mL] | MKN45 (EC50 = ng/ml) (MKN45 tumor cells) [ng/mL] | MKN45-HGF competition (IC50 = ng/ml) (MKN45-HGF) | cMet-ECD-hFc (EC50 = ng/ml) (cMet-ECD-hFc) [ng/mL]
B1 | 10.34 | 41.25 | 53.28 ng/mL | 6.387
B2 | 25.72 | 149.7 | 88.57 ng/mL | 15.76
B3 |  | 348.5 | No activity | 4.807
B4 | 14.9 | 63.08 | 31.28 ng/mL | 7.701
